Test results: IntAct's records for PubMed 29039417

B1: Protein PTHB1 (Homo sapiens), Q3SYG4 (parent)
chain: MSLFKARDWWSTILGDKEEFDQGCLCLANVDNSGNGQDKIIVGSFMGYLRIFSPHPAKTGDGAQAEDLLLEVDLRDPVLQVEVGKFVSGTEMLHLAVLHSRKLCVYSVSGTLGNVEHGNQCQMKLMYEHNLQRTACNMTYGSFGGVKGRDLICIQSMDGMLMVFEQESYAFGRFLPGFLLPGPLAYSSRTDSFLTVSSCQQVESYKYQVLAFATDADKRQETEQQKLGSGKRLVVDWTLNIGEQALDICIVSFNQSASSVFVLGERNFFCLKDNGQIRFMKKLDWSPSCFLPYCSVSEGTINTLIGNHNNMLHIYQDVTLKWATQLPHIPVAVRVGCLHDLKGVIVTLSDDGHLQCSYLGTDPSLFQAPNVQSRELNYDELDVEMKELQKIIKDVNKSQGVWPMTEREDDLNVSVVVSPNFDSVSQATDVEVGTDLVPSVTVKVTLQNRVILQKAKLSVYVQPPLELTCDQFTFEFMTPDLTRTVSFSVYLKRSYTPSELEGNAVVSYSRPTDRNPDGIPRVIQCKFRLPLKLICLPGQPSKTASHKITIDTNKSPVSLLSLFPGFASQSDDDQVNVMGFHFLGGARITVLASKTSQRYRIQSEQFEDLWLITNELILRLQEYFEKQGVKDFACSFSGSIPLQEYFELIDHHFELRINGEKLEELLSERAVQFRAIQRRLLARFKDKTPAPLQHLDTLLDGTYKQVIALADAVEENQGNLFQSFTRLKSATHLVILLIALWQKLSADQVAILEAAFLPLQEDTQELGWEETVDAAISHLLKTCLSKSSKEQALNLNSQLNIPKDTSQLKKHITLLCDRLSKGGRLCLSTDAAAPQTMVMPGGCTTIPESDLEERSVEQDSTELFTNHRHLTAETPRPEVSPLQGVSE
partner: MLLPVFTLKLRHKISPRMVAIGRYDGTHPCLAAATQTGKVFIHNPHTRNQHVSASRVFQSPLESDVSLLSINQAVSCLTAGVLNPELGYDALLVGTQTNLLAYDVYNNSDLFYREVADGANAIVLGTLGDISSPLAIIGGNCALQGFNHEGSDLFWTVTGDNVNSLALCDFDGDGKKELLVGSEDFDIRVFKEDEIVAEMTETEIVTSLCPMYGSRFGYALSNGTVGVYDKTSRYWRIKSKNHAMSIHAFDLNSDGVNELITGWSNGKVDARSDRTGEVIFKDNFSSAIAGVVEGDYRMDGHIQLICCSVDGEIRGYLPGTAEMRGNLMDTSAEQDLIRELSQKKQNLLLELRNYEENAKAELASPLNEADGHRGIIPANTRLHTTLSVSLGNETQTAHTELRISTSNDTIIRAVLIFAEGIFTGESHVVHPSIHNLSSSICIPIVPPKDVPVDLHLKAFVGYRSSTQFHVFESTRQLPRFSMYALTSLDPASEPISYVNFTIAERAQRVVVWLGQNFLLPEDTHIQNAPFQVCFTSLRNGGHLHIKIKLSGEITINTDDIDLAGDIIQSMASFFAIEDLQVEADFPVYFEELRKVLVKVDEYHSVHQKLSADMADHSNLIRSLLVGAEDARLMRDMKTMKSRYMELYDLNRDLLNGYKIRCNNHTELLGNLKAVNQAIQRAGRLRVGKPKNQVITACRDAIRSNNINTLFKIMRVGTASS

Variants of: B1
Conditions: with bbs2_human BBS2, Q9BXC9

Row | Variant | effect of a mutation on the interaction
1 | D571K | with no effect
2 | D571A | with no effect
3 | D571E | with no effect
4 | S561E | with no effect
5 | S561K | with no effect
6 | S561A | with no effect
7 | A567K | with no effect
8 | A567E | with no effect
9 | D572E | with no effect
10 | D572A | with no effect
11 | D572K | with no effect
12 | T552A | with no effect
13 | T552E | with no effect
14 | T552K | with no effect
15 | T549A | with no effect
16 | T549K | with no effect
17 | T549E | with no effect
18 | S570K | with no effect
19 | S570A | with no effect
20 | S570E | with no effect
21 | S558N | disrupting interaction strength
22 | S558A | with no effect

Row | Variant | effect of a mutation on the interaction
23 | S558E | with no effect
24 | S558K | with no effect
25 | F563K | with no effect
26 | F563E | with no effect
27 | F563A | with no effect
28 | M578E | with no effect
29 | M578A | with no effect
30 | M578K | disrupting interaction strength
31 | S568A | with no effect
32 | S568K | with no effect
33 | S568E | with no effect
34 | Q574K | with no effect
35 | Q574A | with no effect
36 | Q574L | disrupting interaction strength
37 | Q574E | with no effect
38 | Q569A | with no effect
39 | Q569K | with no effect
40 | Q569E | with no effect
41 | G579E | with no effect
42 | G579A | with no effect
43 | G579K | with no effect
44 | D551E | with no effect

Row | Variant | effect of a mutation on the interaction
45 | D551A | with no effect
46 | D551K | with no effect
47 | I550E | with no effect
48 | I550A | with no effect
49 | I550K | with no effect
50 | L559K | with no effect
51 | L559E | with no effect
52 | L559A | with no effect
53 | L559R | disrupting interaction strength
54 | N576E | with no effect
55 | N576K | with no effect
56 | N576A | with no effect
57 | V575A | with no effect
58 | V575E | with no effect
59 | V575K | with no effect
60 | F566A | with no effect
61 | F566E | with no effect
62 | F566K | with no effect
63 | H581E | with no effect
64 | H581P | disrupting interaction strength
65 | H581K | with no effect
66 | H581A | with no effect

Row | Variant | effect of a mutation on the interaction
67 | H581Y | disrupting interaction strength
68 | V557K | with no effect
69 | V557A | with no effect
70 | V557E | with no effect
71 | L562A | with no effect
72 | L562E | with no effect
73 | L562K | with no effect
74 | S555K | with no effect
75 | S555A | with no effect
76 | S555E | with no effect
77 | I548A | with no effect
78 | I548E | with no effect
79 | I548K | with no effect
80 | V577E | with no effect
81 | V577K | with no effect
82 | V577A | with no effect
83 | P556Q | disrupting interaction strength
84 | P556A | with no effect
85 | P556E | with no effect
86 | P556K | with no effect
87 | D573A | with no effect
88 | D573E | with no effect

Row | Variant | effect of a mutation on the interaction
89 | D573K | with no effect
90 | F580E | with no effect
91 | F580A | with no effect
92 | F580K | with no effect
93 | K554A | with no effect
94 | K554E | with no effect
95 | K554S | disrupting interaction strength
96 | P564K | with no effect
97 | P564E | with no effect
98 | P564A | with no effect
99 | L560A | with no effect
100 | L560K | with no effect
101 | L560E | with no effect
102 | N553A | with no effect
103 | N553T | disrupting interaction strength
104 | N553E | with no effect
105 | N553K | with no effect
106 | G565R | disrupting interaction strength
107 | G565K | with no effect
108 | G565A | with no effect
109 | G565E | with no effect

More lines, now with the values ahead:

Row | effect of a mutation on the interaction | Variant
110 | with no effect | L591K
111 | with no effect | L591A
112 | with no effect | L591E
113 | with no effect | S593E
114 | with no effect | S593K
115 | with no effect | S593A
116 | disrupting interaction strength | G585R
117 | with no effect | G585A
118 | with no effect | G585E
119 | with no effect | G585K
120 | with no effect | F582E
121 | with no effect | F582A
122 | with no effect | F582K
123 | with no effect | I588A
124 | with no effect | I588K
125 | with no effect | I588E
126 | disrupting interaction strength | Q602L
127 | with no effect | Q602K
128 | with no effect | Q602E
129 | with no effect | Q602A
130 | with no effect | A592E
131 | with no effect | A592K
132 | disrupting interaction strength | R600G

Row | effect of a mutation on the interaction | Variant
133 | with no effect | R600A
134 | with no effect | R600E
135 | with no effect | R600K
136 | disrupting interaction strength | Q597R
137 | with no effect | Q597E
138 | with no effect | Q597K
139 | with no effect | Q597A
140 | with no effect | V590K
141 | with no effect | V590A
142 | with no effect | V590E
143 | with no effect | T589A
144 | with no effect | T589K
145 | with no effect | T589E
146 | disrupting interaction strength | T589S
147 | with no effect | L583E
148 | with no effect | L583K
149 | with no effect | L583A
150 | with no effect | R598E
151 | with no effect | R598K
152 | disrupting interaction strength | R598L
153 | with no effect | R598A
154 | with no effect | Y599K
155 | with no effect | Y599A

Row | effect of a mutation on the interaction | Variant
156 | with no effect | Y599E
157 | with no effect | K594A
158 | with no effect | K594E
159 | with no effect | G584K
160 | with no effect | G584A
161 | with no effect | G584E
162 | with no effect | S596A
163 | with no effect | S596E
164 | with no effect | S596K
165 | with no effect | A586E
166 | with no effect | A586K
167 | with no effect | I601E
168 | with no effect | I601A
169 | with no effect | I601K
170 | with no effect | R587A
171 | with no effect | R587E
172 | disrupting interaction strength | R587T
173 | with no effect | R587K
174 | with no effect | T595K
175 | disrupting interaction strength | T595S
176 | with no effect | T595A
177 | disrupting interaction strength | T595I
178 | with no effect | T595E
